Molecular target: T1, Human EphB4 (Genbank ID No. NP_004435) (human, UniProt P54760 16-987, limits assumed)
T1 construct: Detected as denatured protein on Western blot (MAb265), on tissue sections (MAb131) and by immunoprecipitation (MAb47); also called EphB4 receptor
T1 sequence: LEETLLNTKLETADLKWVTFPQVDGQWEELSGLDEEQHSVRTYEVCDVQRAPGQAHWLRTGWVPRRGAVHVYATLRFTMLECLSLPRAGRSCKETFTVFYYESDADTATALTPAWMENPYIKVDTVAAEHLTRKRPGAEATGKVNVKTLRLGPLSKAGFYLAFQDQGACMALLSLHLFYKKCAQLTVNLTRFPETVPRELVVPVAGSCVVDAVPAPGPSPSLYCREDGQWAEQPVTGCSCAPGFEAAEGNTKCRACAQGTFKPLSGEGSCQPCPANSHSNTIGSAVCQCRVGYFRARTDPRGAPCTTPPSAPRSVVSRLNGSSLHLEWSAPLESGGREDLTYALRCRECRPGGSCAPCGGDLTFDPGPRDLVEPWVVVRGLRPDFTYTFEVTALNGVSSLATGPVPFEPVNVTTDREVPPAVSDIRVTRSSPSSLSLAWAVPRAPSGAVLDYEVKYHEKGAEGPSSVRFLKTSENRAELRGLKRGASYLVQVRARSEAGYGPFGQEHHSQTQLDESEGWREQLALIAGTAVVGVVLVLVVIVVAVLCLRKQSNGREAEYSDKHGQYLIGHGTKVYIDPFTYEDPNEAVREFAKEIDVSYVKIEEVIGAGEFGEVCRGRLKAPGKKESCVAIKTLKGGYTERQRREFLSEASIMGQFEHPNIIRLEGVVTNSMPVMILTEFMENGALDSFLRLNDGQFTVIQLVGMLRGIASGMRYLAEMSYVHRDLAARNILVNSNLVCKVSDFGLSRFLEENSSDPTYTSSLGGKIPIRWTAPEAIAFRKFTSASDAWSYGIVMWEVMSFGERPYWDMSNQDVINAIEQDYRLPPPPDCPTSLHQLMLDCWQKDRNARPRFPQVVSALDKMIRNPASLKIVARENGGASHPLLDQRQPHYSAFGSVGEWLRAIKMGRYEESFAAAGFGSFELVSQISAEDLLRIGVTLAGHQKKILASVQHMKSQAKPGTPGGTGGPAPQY
Test: Western blot

binding result: binds
B1: mouse monoclonal antibody 265 (antibody, V domains shown)
VH: QQSGAELARPGASVKLSCKASGYTFTSYWMQWVKQRPGQGLEWIGAIYPGDGDTRYTQKFKGKATLTADKSSSTAYMQLSTLASEDSAVYYCARVGGWLLLAYWGQGTTVT
VL: DIVMTQSPSSLAMSVGQKVTMNCKSSQSLLNSNTQKNYLAWYQQKPGHSPKLLVYLSSTRESGVPDRFIGSGSGTDFTLTISSVQAEDLADYFCQQHYTTPLTFGAGTKLELKR
notes: Mouse monoclonal from a hybridoma; also called MAb265; MAB265

From patent WO2008112290A2 (dated 2008)
